Laboratory results as given in patent US20210393523A1, “AROMATIC RING SUBSTITUTED AMPHIPHILIC POLYMERS AS DRUG DELIVERY SYSTEMS” (Avldea Technologies, Inc., priority 2018, published 2021).
Square brackets hold non-standard residues; d marks the D form. Ends that are not written are not given here. N3‑DBCO = triazole linker from reaction of an azide with DBCO; Lys(N3) = [N-]=[N+]=NCCCC[C@H](N)C(=O)O; Phe(4-NH2) = Nc1ccc(C[C@H](N)C(=O)O)cc1

Assays:
[1] = Particle size and stability by dynamic light scattering; format: physicochemical; conditions: Table 2; S-[B]-H particles
MC38 tumor cells = assay: Regression of established MC38 tumors after intratumoral treatment; format: in vivo, C57BL/6 mice; conditions: intratumoral days 11 and 17, 10 and 50 nmol
Description: Tumors were measured by digital callipers for the longest dimension (‘length’) and the distance perpendicular to the length (‘width’), and volume estimated by the formula: <volume=width×width×length/2>. Data are reported as mean±s.e.m in FIGS. 3-5. Tumor regression is noted as soon as 1 day following 50 nmol dose of each S-B-H carrier of TLR-7/8a.

[2] = Particle size and stability by dynamic light scattering; format: physicochemical; conditions: Table 3; peptide-based linear C-B-H; PBS pH 7.4, 0.5 mg/mL
Description: To evaluate particle size and stability, 10 μL of the resulting mixture was diluted with 190 μL PBS, pH 7.4 and the resulting solution was evaluated for turbidity and by dynamic light scattering (DLS).
This reaction scheme was used to prepare different compositions of amphiphilic block copolymers that were characterized for the capacity to form stable nanoparticle micelles in aqueous buffer, PBS pH 7.4, at a concentration of 0.5 mg/mL of amphiphilic block copolymer.
A series of linear amphiphilic block copolymers of formula C-B-H, wherein the charged molecule (C) and spacer (B) comprises peptides, i.e., poly(lysine) and poly(serine-co-glycine), respectively, with varying hydrophobic polymer composition were evaluated for particle size and stability by dynamic light scattering.

Substance	Size (diameter, nm) [2]	also measured
EEEEE-(N3-DBCO)-WWWWW (EEEEE[N3‑DBCO]WWWWW) [Compound 23]		Particle size (Diameter, nm) [1]: 54.09 nm
K7(SG)12×—(N3-DBCO)-Ahx-(F′)20 [Compound 84]		Regression of established tumors (MC38 tumor cells; FIG. 4, nanoparticles associated with 2BXy (1 to 4 molar ratio) or covalently linked to 2BXy): promote regression of established tumors
KKK-SGSGSGSGSGSGSGSGSGSGSGSG-(Lys(N3-DBCO))-Ahx-(F′)5: peptide-based linear amphiphilic block copolymer (KKKSGSGSGSGSGSGSGSGSGSGSGSGK[Phe(4-NH2)][Phe(4-NH2)][Phe(4-NH2)][Phe(4-NH2)][Phe(4-NH2)]; not fully specified (residue 28); printed as KKK-SGSGSGSGSGSGSGSGSGSGSGSG-(Lys(N3-DBCO))-Ahx-(F′)5; also: Lys joined to F′ block via N3-DBCO-Ahx linkage)	1013 nm	
KKK-SGSGSGSGSGSGSGSGSGSGSGSG-(Lys(N3-DBCO))-Ahx-(F′)10: peptide-based linear amphiphilic block copolymer (KKKSGSGSGSGSGSGSGSGSGSGSGSGK[Phe(4-NH2)][Phe(4-NH2)][Phe(4-NH2)][Phe(4-NH2)][Phe(4-NH2)][Phe(4-NH2)][Phe(4-NH2)][Phe(4-NH2)][Phe(4-NH2)][Phe(4-NH2)]; not fully specified (residue 28); printed as KKK-SGSGSGSGSGSGSGSGSGSGSGSG-(Lys(N3-DBCO))-Ahx-(F′)10; also: Lys joined to F′ block via N3-DBCO-Ahx linkage)	3839 nm	
KKK-SLVRX-(N3-DBCO)-WWWWW (KKKSLVR[Lys(N3)]WWWWW; not fully specified (residue 8); printed as KKK-SLVRX-(N3-DBCO)-WWWWW; also: azidolysine joined to Trp block via N3-DBCO linkage) [Compound 22]		Particle size (Diameter, nm) [1]: 64.73 nm
KKKKKKK-SGSGSGSGSGSGSGSGSGSGSGSG-(Lys(N3-DBCO))-Ahx-(F′)5: peptide-based linear amphiphilic block copolymer (KKKKKKKSGSGSGSGSGSGSGSGSGSGSGSGK[Phe(4-NH2)][Phe(4-NH2)][Phe(4-NH2)][Phe(4-NH2)][Phe(4-NH2)]; not fully specified (residue 32); printed as KKKKKKK-SGSGSGSGSGSGSGSGSGSGSGSG-(Lys(N3-DBCO))-Ahx-(F′)5; also: Lys joined to F′ block via N3-DBCO-Ahx linkage)	477 nm	
KKKKKKK-SGSGSGSGSGSGSGSGSGSGSGSG-(Lys(N3-DBCO))-Ahx-(F′)20: peptide-based linear amphiphilic block copolymer (KKKKKKKSGSGSGSGSGSGSGSGSGSGSGSGK[Phe(4-NH2)][Phe(4-NH2)][Phe(4-NH2)][Phe(4-NH2)][Phe(4-NH2)][Phe(4-NH2)][Phe(4-NH2)][Phe(4-NH2)][Phe(4-NH2)][Phe(4-NH2)][Phe(4-NH2)][Phe(4-NH2)][Phe(4-NH2)][Phe(4-NH2)][Phe(4-NH2)][Phe(4-NH2)][Phe(4-NH2)][Phe(4-NH2)][Phe(4-NH2)][Phe(4-NH2)]; not fully specified (residue 32); also: Lys joined to F′ block via N3-DBCO-Ahx linkage)	32 nm	
{OH-PEG24}4-{propargyl}4K2K{Lys(N3)}-DBCO-Ahx-(F′)10 [Compound 80]		Regression of established tumors (MC38 tumor cells; FIG. 5, nanoparticles admixed with 2BXy and Doxorubicin at 1 to 4 to 4 molar ratio): promote regression of established tumors
